From article PMC12440821, “ACAD10 and ACAD11 enable mammalian 4-hydroxy acid lipid catabolism” (Nature Structural & Molecular Biology, 2025)
Positions count from the first letter of the chain named.

B1: ACAD11 K* mutant (kinase-inactive mouse acyl-CoA dehydrogenase 11) (enzyme, UniProt Q80XL6 1-779, looked up)
chain: METDVTSDTVEVLPQHKFDLRSLEAYLNQHLPGFGSDSRAVLTVTQYRSGQSNPTFFLQKGSQAYVLRKKPPGSLLPKAHKIDREFKIQKALFSIGFPVAKPLLYCRDASVIGTEFYVMEHVQGRIFRDFSIPGVSSAERAAIYVSVAETLAWLHSLDIRSLKLDKYGTGVGYCKRQVSTWTKQYQASAHQSIPAMDQLSTWLMKNLPDSDSEECLVHGAFKLDNIVFHPKECRVIAVLDWELSTFGHPLTDLAHLSLFYYWPRTLPMINRGSHIPENTGIPLMEELISIYCHRRGIDPNLPNWNFFMALSFFKLAGISQGVYRRYLMGNNSSEDSFLTANTVQPLAETGLQLSKRTLRTTPPQADAKSQLFAQSRRGQEVLTRVKQFMKQHVFPAEKEVAEYYAQSGNSAEKWGHPLVIEKLKEMAKAEGLWNLFLPAVSGLSQVDYALIAEETGKCFFAPDVFNCQAPDTGNMEVLHLYGSEQQKKQWLEPLLRGDITSVFCMTEPNVSSSDATNIECTIQRDGGGYIVNGKKWWSSGAGNPKCKIAIVLGRTESPSASRHRQHSMILVPMDTPGVELIRPLSVFGYMDNMHGGHWEVHFNHVRVPASNLILGEGRGFEISQGRLGPGRIHHCMRTVGLAERILQIMCDRAVQREAFKKKLYEHEVVAHWIAKSRIAIEEIRLLTLKAAHSIDTLGSASARKEIAMIKVAAPKAVCKIADWAIQVHGGAGVSQDYPLANMYAIIRTLRLADGPDEVHLSAIAKMELQDQARRLTARM
notes: catalytic aspartate of the kinase domain replaced with alanine; only the ACAD domains were resolved in the map; Cloned in pE-SUMOstar with a 5' SUMO tag; tag removed with Ulp1; Sample held FAD and 100 uM 4-HV-CoA; also called kinase-dead mutant; source: E. coli B21-CodonPlus (DE3)RIPL, purified (Ni-NTA, cation exchange, size-exclusion chromatography); not shown: SUMO, N-terminal, cleaved
B2: ACAD11 A* mutant (ACAD-inactive mouse acyl-CoA dehydrogenase 11) (enzyme, UniProt Q80XL6 1-779, looked up)
chain: B1 chain with A220D, D753N
notes: catalytic aspartate of the ACAD domain replaced with asparagine; kinase and ACAD domains both resolved; Cloned in pE-SUMOstar with a 5' SUMO tag; tag removed with Ulp1; Sample held FAD and 100 uM 4-PV-CoA; also called ACAD-dead mutant; source: E. coli B21-CodonPlus (DE3)RIPL, purified (Ni-NTA, cation exchange, size-exclusion chromatography); not shown: SUMO, N-terminal, cleaved

Legend:
[1] = biological target: the molecule itself; experiment: cryo-EM structure; single-particle cryo-EM of ACAD11 K* incubated with 100 uM 4-HV-CoA; 50 mM HEPES, 50 mM NaCl, 2% glycerol, 50 uM FAD, pH 7.5; D2 symmetry imposed; 2.6 A
[2] = biological target: the molecule itself; experiment: cryo-EM structure; single-particle cryo-EM of ACAD11 A* incubated with 100 uM 4-PV-CoA; 50 mM HEPES, 50 mM NaCl, 2% glycerol, 50 uM FAD, pH 7.5; D2 symmetry imposed; 3.6 A

Protein | stoichiometry N [1] | stoichiometry N [2]
B1 | 4 | 
B2 |  | 4
